These results are taken from patent EP2661444B1 (Complix SA, dated 2015).

The target in assay [1] is T1, bL4_C36 (HIV-1 gp41 HR2-derived biotinylated peptide C36) (HIV-1 HXB2, N-terminal biotin; C-terminal amide).
T1 construct: also called gp41 C36 target peptide; control peptide C36
T1 peptide: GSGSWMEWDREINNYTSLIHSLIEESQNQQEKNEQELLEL
The assay can be described thus: ELISA, biotinylated peptide on streptavidin, anti-His-HRP detection, apparent KD. Background: In an ELISA, binding on a coated surface is turned into a signal by an enzyme label.

Assay [2] addresses T2, Biotinylated N51 (HIV-1 gp41 HR1-derived peptide, residues 540 to 590 of HIV-1 HXB2) (HIV-1 HXB2, N-terminal biotin).
T2 construct: Immobilised through biotin on streptavidin; also called HIV-1 N51; biotinylated HIV-1 N51
The assay can be described thus: ELISA, biotinylated peptide on streptavidin, anti-His-HRP detection, sigmoid fit, apparent KD.

Assay [3] deals with T2, Biotinylated N51 (HIV-1 gp41 …). The assay can be described thus: SPR (BIAcore), biotinylated N51 on streptavidin chip, 1:1 Langmuir fit. (In general: Surface plasmon resonance follows binding to a sensor surface in real time, without labels.)
Assay [4] addresses T1, bL4_C36 (HIV-1 gp41 HR2-derived …). The assay can be described thus: ELISA, biotinylated peptide on streptavidin, anti-His-HRP detection, sigmoid fit, apparent KD.

In general, koff refers to a measure of how fast the partners let go of each other. A higher koff goes with a short-lived complex. In general, kon refers to the rate constant with which the complex forms. Low readings indicate slower complex formation, high ones faster complex formation.

B1: Alphabody 'scAB013_C2' (designed binder)
chain: MSIEEIQKQIAAIQKQIAAIQKQIYRMTGGSSGGSMQMYTIQIQILIIQAQIQQIQNQIELMTLGGSSGGMSIEEIQKQIAAIQKQIAAIQKQIYRMTPLEHHHHHH
notes: Single-chain Alphabody that mimics gp41 HR2 (grafted B-helix), made in E. coli; also called wild type scAB013_C2
Take B1: the results for the Kd in assay [1], in assay [2] and in assay [3] were > 10 µM, 18 nM and 2.07 nM, respectively. Also, the off-rate (koff) in assay [3] is 0.000209 s⁻¹. The molecule also gave a kon in assay [3] of 101000 M⁻¹ s⁻¹.

B2: Alphabody 'scAB_Env03' (designed binder)
chain: MGHHHHHHHHHHSSGHIEGRHMSIEEIQKPIATIQEAIAWIQKKIYMMTGGSGGGSGGGSGGGSGMSIEEIQKQIAAIQKQIAAIQKQIYAMTGGSGGGSGGGSGGGSGMSIEEIQKQIVAIMEQIVAIVKQISAMTP
notes: The tag of the construct tested is not described; also called scAB013_Env03
Take B2: in assay [4], the Kd is 211 nM.
